This is an account of results in US20080166749A1, “Fluorescent Protein Sensors of Post-Translational Modifications” (INVITROGEN CORPORATION, priority 1998, published 2008).

Where no end group is shown, it is not given here.

Common to all, as to format: biochemical
The target of one series is PKA (Mus musculus, UniProt P05132). The experiment in a line: GFP mutant K8 quenching assay with protein kinase A inhibitors. The following applies: 1 mM versus 0.1 mM ATP. As for the experimental part: The protein kinase A inhibitors PKI (protein kinase A heat-stable inhibitor, isoform alpha (Calbiochem #539488) and H-89 (N-[2-((p-bromocinnamyl)amino)ethyl]-5-isoquinoline sulfonamide, HCl) (Calbiochem #371963) were tested in the preferred assay condition to determine if they could be detected using the GFP mutant K8 quenching assay. Both compounds were tested individually (between 0.1 and 1,000 nM) and pre-incubated with PKA in the absence of mutant K8 for 10 minutes at 4° C. Then, GFP mutant K8 was added to a final concentration of 4 μM and the mixtures were incubated for thirty minutes at 30° C. The kinase reactions were terminated by the addition of the preferred acetate quenching conditions (100 mM acetate, 100 mM NaCl, pH 5.0, 25 mM beta-glycerol phosphate). The fluorescence of these samples was measured 14 to 16 hours later. The results of these studies establish that the GFP mutant K8 quenching assay can be used to detect kinase inhibitors and further validates the methodology for drug screening.
The protein kinase A inhibitor H-89 was tested in the GFP mutant K8 kinase assay at two different ATP concentrations (0.1 mM and 1 mM). […] Because the GFP kinase assay can be performed at both high and low ATP concentrations, this method can be used to identify, measure, and detect ATP antagonists. […]

For series [1], the system named is activated recombinant MAP kinase. Put plainly: Phosphorylation of GFP Erk sensors by MAP kinase, ^32P incorporation. The note with it: for ^32P-Incorporation (CPM): 10 μM substrate, 100 ng MAP kinase, 30 minutes at 30° C., mean ± standard deviation of triplicates. From the text:
Experiments were terminated and samples processed as described previously in subsection D.4. Results presented in Table X represent means of triplicate determinations ±standard deviations of ^32P-incorporation in washed pellets as described earlier.

A further series concerns the target Erk-1 kinase (Homo sapiens, UniProt P27361). Put plainly: Fluorescence change of Erk substrates after phosphorylation and acetate quench. The note with it: 2 μM GFP, 1 μg Erk-1 kinase, 1 hour at 30° C.; 3 hours in acetate quenching buffer pH 5.0. As for the experimental part:
These experiments were performed by incubating the GFP sample (2 μM) with Erk-1 kinase (1 μg) for 1 hour at 30° C. in assay buffer (20 mM MOPS, pH 7.2, 25 mM beta-glycerol phosphate, 5 mM EGTA, 1 mM DTT, 1 mM ATP, 20 mM MgCl2). Reactions were quenched by the addition of acetate quenching buffer (100 μL of 100 mM Acetate pH 5.0, 100 mM NaCl, 20 mM beta-Glycerol phosphate). Fluorescence changes were measured after 3 hours of incubation in acetate quenching buffer. Results represent the means of triplicate determinations.

The target of another series is T1, PKC ε (Homo sapiens, UniProt Q02156).
T1 sequence (Q02156 1-737): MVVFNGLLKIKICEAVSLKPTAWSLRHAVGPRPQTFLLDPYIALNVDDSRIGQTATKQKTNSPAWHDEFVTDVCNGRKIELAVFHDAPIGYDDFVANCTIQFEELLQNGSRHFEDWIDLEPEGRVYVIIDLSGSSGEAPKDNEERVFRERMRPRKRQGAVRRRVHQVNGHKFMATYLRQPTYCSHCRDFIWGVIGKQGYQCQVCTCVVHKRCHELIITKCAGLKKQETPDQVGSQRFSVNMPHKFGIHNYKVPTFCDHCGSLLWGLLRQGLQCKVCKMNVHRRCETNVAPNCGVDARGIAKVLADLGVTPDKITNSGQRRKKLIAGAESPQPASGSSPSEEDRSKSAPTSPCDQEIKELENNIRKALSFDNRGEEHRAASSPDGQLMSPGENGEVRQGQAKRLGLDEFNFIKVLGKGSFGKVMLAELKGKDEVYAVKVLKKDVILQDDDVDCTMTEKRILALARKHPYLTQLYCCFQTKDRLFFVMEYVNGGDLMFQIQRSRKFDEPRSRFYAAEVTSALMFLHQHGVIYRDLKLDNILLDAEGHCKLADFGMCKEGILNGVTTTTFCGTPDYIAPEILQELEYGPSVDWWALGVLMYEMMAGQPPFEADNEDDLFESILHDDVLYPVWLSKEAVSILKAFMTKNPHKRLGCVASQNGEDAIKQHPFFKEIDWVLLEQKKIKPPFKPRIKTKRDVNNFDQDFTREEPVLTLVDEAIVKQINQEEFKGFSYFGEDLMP
The experiment in a line: Rate of phosphorylation of GFP PKC substrates, ^32P incorporation. The following applies: 5 micromolar GFP mutant, 0.2 μg PKC isoform, 30 minutes at 30° C. As for the experimental part: (§1) The rates of phosphorylation of GFP having PKC motifs were determined by measuring ^32P incorporation in the presence of different PKC isoforms (Table XIII). These examples include one example where a membrane association motif is part of the GFP mutant.
(§2) These experiments were performed by incubating the indicated GFP mutant (5 micromolar) with the indicated PKC isoform (0.2 μg) for 30 minutes at 30° C. in 25 mM TRIS pH 7.5, 1 mM DTT, 10 mM MgCl2 0.1 mM ATP 20 μg/ml phosphatidylserine, 10 μM OAG, 200 μM CaCl2 (for PKCα) and 1 mM EGTA (for PKCs ε and ζ). […] The relative specificities identified for the GFP substrates in this experiment broadly matched those identified by Nishikawa et al (1997) who used non-GFP peptides to selectively measure PCK isoform activity. […] Membrane association motif poly-Lys (hepta-Lys) was added to the C-terminus of GFP mutant K8 with PKC alpha phosphorylation motif at the N-terminus.

For the next series, the target named is T2, PKC ζ (Homo sapiens, UniProt Q05513).
T2 sequence (Q05513 1-592): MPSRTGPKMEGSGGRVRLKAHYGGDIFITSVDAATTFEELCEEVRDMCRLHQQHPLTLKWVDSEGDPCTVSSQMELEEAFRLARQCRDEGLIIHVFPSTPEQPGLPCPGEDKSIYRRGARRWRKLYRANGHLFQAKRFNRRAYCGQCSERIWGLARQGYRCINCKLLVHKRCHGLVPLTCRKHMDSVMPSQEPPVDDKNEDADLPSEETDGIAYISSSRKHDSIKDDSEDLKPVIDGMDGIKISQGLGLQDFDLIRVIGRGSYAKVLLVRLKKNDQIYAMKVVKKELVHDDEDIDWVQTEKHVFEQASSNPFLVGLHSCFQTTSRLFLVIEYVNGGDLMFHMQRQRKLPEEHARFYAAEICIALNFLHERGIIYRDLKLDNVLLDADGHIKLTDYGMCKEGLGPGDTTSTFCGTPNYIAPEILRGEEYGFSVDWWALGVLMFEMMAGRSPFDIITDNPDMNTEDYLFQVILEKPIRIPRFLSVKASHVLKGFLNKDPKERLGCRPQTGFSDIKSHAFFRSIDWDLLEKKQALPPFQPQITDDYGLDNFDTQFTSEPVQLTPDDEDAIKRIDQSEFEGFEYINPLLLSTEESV
The description is as above. The following applies: 5 micromolar GFP mutant, 0.2 μg PKC isoform, 30 minutes at 30° C. How it is done: as §1, §2

A further series addresses PKC alpha (Homo sapiens, UniProt P17252). The description is as above. The following applies: 5 micromolar GFP mutant, 0.2 μg PKC isoform, 30 minutes at 30° C. How it is done:
as §1, §2

Chain of Erk-1 kinase (P27361 whole entry): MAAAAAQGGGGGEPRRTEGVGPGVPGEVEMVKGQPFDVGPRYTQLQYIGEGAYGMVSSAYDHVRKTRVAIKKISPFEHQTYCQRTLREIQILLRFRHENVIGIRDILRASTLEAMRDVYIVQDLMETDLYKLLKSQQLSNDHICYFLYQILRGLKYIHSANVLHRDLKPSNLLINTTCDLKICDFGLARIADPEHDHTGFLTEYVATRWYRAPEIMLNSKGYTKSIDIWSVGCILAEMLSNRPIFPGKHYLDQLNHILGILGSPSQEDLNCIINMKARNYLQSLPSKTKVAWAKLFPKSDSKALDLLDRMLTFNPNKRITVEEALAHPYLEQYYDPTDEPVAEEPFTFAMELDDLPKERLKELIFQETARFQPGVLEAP

Regarding `Cl.O=S(=O)(NCCNCC=Cc1ccc(Br)cc1)c1cccc2cnccc12` [H-89, N-[2-((p-bromocinnamyl)amino)ethyl]-5-isoquinoline sulfonamide, HCl], the “inhibition of kinase activity at the higher ATP concentration” value at PKA was “much less efficient at inhibiting kinase activity”.

In the case of “Erk-6: GFP mutant K8 with Erk kinase motif Met Thr Gly Pro Leu Ser Pro Gly Leu (MTGPLSPGL; not fully specified; printed as Met Thr Gly Pro Leu Ser Pro Gly Leu)”, the “^32P-Incorporation (CPM)” value in series [1] stood at 22498 ± 381 CPM. Also, the “Fold Increase in Fluorescence after Phosphorylation” value in the series with Erk-1 kinase is listed as 1.20 fold.

Consider “Erk-7: GFP mutant K8 with Erk kinase motif Met Thr Gly Pro Leu Ser Pro Gly Pro (MTGPLSPGP; not fully specified; printed as Met Thr Gly Pro Leu Ser Pro Gly Pro)”, for which the “^32P-Incorporation (CPM)” value in series [1] is listed as 25502 ± 2077 CPM. Further, the Michaelis constant (Km) in series [1] (kinetic analysis) was 15 µM. In addition, in the series with Erk-1 kinase, the “Fold Increase in Fluorescence after Phosphorylation” value came out at 1.05 fold.

“Pkc 7: GFP mutant K8 with PKC ζ motif Arg Arg Phe Lys Arg GIn Gly Ser Phe Phe (RRFKRQGSFF; not fully specified; printed as Arg Arg Phe Lys Arg GIn Gly Ser Phe Phe)”: the “Kinase and Activity (CPM), PKC ε” value with PKC ε is given as 12,688 CPM. Also, the “Kinase and Activity (CPM), PKC ζ” value in the series with PKC ζ was 8,421 CPM. The “Kinase and Activity (CPM), PKC alpha” value with PKC alpha was 4,745 CPM.

For “Pkc 8: GFP mutant K8 with PKC μ motif Ala Ala Leu Val Arg GIn Met Ser Val Ala (AALVRQMSVA; not fully specified; printed as Ala Ala Leu Val Arg GIn Met Ser Val Ala)”, in the series with PKC ε, the “Kinase and Activity (CPM), PKC ε” value is listed as 20,259 CPM. Also, the “Kinase and Activity (CPM), PKC ζ” value with PKC ζ is listed as 14,606 CPM. In the series with PKC alpha, the “Kinase and Activity (CPM), PKC alpha” value was 5.230 CPM.
